US20200055939A1 (Genentech, published 2020)

T1: I236A
T1 construct: % monomer 92.49; also called MICA*008.mIgG2a I236A
T1 chain: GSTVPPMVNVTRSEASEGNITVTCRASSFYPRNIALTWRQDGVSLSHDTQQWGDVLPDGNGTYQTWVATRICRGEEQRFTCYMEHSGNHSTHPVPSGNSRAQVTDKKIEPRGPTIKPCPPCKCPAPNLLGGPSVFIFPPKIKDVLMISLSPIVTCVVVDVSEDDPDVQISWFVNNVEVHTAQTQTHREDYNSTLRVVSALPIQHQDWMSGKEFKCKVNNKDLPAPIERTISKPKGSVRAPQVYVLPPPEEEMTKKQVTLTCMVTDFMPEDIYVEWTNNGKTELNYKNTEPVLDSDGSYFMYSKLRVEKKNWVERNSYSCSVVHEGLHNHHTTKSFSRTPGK

T2: T250A
T2 construct: % monomer 91.61; also called MICA*008.mIgG2a T250A
T2 chain: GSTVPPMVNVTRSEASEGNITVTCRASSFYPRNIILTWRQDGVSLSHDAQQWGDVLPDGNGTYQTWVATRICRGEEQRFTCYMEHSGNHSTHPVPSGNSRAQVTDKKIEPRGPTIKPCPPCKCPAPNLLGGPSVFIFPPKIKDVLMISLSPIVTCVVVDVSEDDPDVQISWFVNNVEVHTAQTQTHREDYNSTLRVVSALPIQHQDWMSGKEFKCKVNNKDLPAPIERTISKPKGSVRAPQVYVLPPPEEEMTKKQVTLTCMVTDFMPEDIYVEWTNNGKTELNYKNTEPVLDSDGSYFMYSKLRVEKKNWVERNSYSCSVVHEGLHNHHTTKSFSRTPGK

T3: R274A
T3 construct: % monomer 94; also called MICA*008.mIgG2a R274A
T3 chain: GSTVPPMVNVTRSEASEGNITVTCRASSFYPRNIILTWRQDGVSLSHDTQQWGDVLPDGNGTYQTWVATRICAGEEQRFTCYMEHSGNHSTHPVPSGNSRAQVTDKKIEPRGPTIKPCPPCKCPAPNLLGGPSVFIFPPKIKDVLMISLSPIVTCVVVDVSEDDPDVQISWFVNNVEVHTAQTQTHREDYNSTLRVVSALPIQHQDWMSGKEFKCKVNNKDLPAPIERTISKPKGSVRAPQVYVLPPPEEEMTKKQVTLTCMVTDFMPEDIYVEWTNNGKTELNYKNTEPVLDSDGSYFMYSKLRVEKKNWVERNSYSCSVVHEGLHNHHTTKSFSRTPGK

T4: R279A
T4 construct: % monomer 95.2; also called MICA*008.mIgG2a R279A
T4 chain: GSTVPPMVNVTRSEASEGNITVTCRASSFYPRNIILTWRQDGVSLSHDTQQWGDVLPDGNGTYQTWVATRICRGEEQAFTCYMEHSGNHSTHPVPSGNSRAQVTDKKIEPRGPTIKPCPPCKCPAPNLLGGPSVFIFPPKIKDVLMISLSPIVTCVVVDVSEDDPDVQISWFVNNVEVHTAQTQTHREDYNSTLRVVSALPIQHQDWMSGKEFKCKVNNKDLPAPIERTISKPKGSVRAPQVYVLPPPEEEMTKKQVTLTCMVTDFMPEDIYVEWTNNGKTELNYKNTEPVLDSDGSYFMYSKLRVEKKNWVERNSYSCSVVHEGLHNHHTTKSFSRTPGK

T5: H290A
T5 construct: % monomer 90.37; also called MICA*008.mIgG2a H290A
T5 chain: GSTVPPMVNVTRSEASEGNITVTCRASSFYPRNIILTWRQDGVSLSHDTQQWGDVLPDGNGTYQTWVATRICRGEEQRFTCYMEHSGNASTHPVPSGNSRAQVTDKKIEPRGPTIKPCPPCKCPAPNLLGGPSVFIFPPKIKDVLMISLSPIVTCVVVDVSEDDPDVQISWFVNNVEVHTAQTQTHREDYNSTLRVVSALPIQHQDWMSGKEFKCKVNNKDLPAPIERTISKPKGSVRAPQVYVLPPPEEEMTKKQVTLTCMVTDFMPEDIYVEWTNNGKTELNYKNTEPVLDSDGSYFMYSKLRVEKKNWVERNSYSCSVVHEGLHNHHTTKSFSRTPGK

T6: Q241A (Fc fusion, a disulfide-linked homodimer; one chain given.)
T6 construct: % monomer 97.6; also called MICA*008.mIgG2a Q241A
T6 chain: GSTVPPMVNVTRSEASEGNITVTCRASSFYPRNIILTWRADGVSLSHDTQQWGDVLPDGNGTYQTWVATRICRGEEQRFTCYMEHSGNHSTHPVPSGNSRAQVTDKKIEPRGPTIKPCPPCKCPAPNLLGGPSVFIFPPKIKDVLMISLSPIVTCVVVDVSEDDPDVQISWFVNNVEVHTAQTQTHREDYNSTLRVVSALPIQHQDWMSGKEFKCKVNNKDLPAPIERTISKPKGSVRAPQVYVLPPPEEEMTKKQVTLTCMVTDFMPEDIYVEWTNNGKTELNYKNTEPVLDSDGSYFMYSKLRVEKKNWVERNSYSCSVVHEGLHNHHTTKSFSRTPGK

T7: D249A
T7 construct: % monomer 86.64; also called MICA*008.mIgG2a D249A
T7 chain: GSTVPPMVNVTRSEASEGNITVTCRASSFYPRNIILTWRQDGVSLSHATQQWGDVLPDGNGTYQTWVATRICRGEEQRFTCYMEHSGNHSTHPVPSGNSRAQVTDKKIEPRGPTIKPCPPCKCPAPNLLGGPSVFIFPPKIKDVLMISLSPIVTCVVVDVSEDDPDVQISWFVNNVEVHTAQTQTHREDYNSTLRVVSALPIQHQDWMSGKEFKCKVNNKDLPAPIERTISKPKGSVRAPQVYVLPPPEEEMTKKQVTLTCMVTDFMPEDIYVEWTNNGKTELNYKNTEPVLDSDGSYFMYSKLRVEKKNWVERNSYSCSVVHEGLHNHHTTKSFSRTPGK


Legend:
Assay in all cases: SPR, Fab over captured MICA*008.mIgG2a Ala variant; KD relative to wild type
I236A = biological target: T1, I236A
T250A = biological target: T2, T250A
R274A = biological target: T3, R274A
R279A = biological target: T4, R279A
H290A = biological target: T5, H290A
Q241A = biological target: T6, Q241A
D249A = biological target: T7, D249A

Binder	fold-decrease in affinity (I236A)	fold-decrease in affinity (T250A)	fold-decrease in affinity (R274A)	fold-decrease in affinity (R279A)	fold-decrease in affinity (H290A)	fold-decrease in affinity (Q241A)	fold-decrease in affinity (D249A)
6F8.7 Fab (Fab, V domains shown) VH: DVQLQGSGPGLVKPSQSLSLTCSVTGYSITNDYYWNWIRQFPGNKLEWMGFISFGGSNNYNPSLKNRISITRDTSKNQFFLKLSSVTTEDTATYYCARYDGRGAWFAYWAQGTLVTVSA VL: DIQMTQSPASLSASVGETVTITCRASGNIHNYLAWYQQKQGKSPQLLVYDAITLADGVPSRFSGSGSGTQYSLKINSLQPEDFGNYYCQHFWSFPLTFGAGTKVEIK	1.4	0.5	1	4.5	8.4	1.1	0.8
1D5 Fab (Fab, V domains shown, Expressed in E. coli as chimera of murine variable and human constant domains; not shown: human IgG1 CH1 constant domain; human kappa CL constant domain) VH: EIQLQQSGPELVKPGASVKVSCKASGYAFTSQNIYWVKQSHGKSLEWIGYIEPYNVVPMYNPKFKGKATLTVDKSSSSAYIHLNSLTSEDSAIYYCARSGSSNFDYWGQGTTLTVSS VL: EIILTQSPTTMAASPGEKITITCSASSSISSHYLHWYQQKSGFSPKLLIYRTSNLASGVPARFSGSGSGTSYSLTIGTMEAEDVATYYCQQGSSLPLTFGAGTKVEIK		8.8					
7D4.6 Fab (Fab, V domains shown) VH: DVQLQESGPGLVKPSQSLSLTCTVTGYSITSDYAWNWIRQFPRNKLEWMGYINYSGTTNYNPSLKSRISITRDTSKNQFFLQLISVTTEDTATYYCSYYRYDGAWFPYWGQGTLVTVSA VL: DIQMTQSPASLSASVGETVTITCRASGNIHNYLAWYQQKQGKSPQLLVYNAIMLADGVPSRFSASGSGTQYSLKINSLQPEDFGSYYCQHFWSFPLTFGAGTKVEIK	1.2	0.6	0.9	5.1	8.8	0.4	0.7
2E5.2.3 Fab (Fab, V domains shown) VH: QGQMQQSGAELVKPGASVKLSCKTSGFTFSDNYISWLKQKPGQSLEWIAWIYAGTGGTSYNQKFTAKAQLTVDTSSSTAYMQFSSLTTEDSAIYYCARHDYYGTSGAWFAYWGQGTLVTVSA VL: DVLMTQTPLSLPVSLGDQASLSCRSSQNIVHINGNTYLEWYLQKPGQSPKLLIYKVSNRFSGVPDRFSGSGSGTDFTLKISRVEAEDLGVYYCFQGSHVPWTFGGGTKVEIK	0.9	1.2	1.1	0.8	0.8	1.1	1
